Data reported in patent US20220185900A1.
Substitutions are numbered along the chain they refer to.

B1: H2M7086N (antibody, mouse IgG2, V domains shown)
VH: QVQLVESGGGVVQPGRSLRLSCVVSGFTFSNYGMHWVRQGPGRGLEWLALIWYDGSDKYYAESVRGRFTISRDNSKNTVYLQMNSLRAEDTAMYYCTRDRIFDYWGQGTLVTVSS
VL: AIQMTQSPSSLSASVGDRVTITCRASQDIRNDLGWYQHNPGKAPNLLIYAASTLQIGVPSRFRGSGSGTDFTLTISSLQPEDFATYYCLQDFDYPLSFGGGTKVEIR
B2: H4H8056P (antibody, human IgG4, V domains shown)
VH: QVQLVESGGGVVQPGRSLRLSCAASGFTFRNYGMHWVRQAPGKGLEWVAVKRYDGSDEYFVDSVKGRFTISRDNSKNTLFLQMNSLRVDDTAVYYCARETPITGTTLDYWGQGTLVTVSS
VL: DIQMTQSPSSLSASVGDRVTITCRTSQSITNYLNWYQQKPGKAPKLLIYAASRSQSGVPSRFSGSGSGTDFTLTISSLQPEDFATYYCQQSYSTPLTFGGGTKVEIK
B3: H4H8058P (antibody, human IgG4, V domains shown)
VH: QVQLVESGGGVGQPGRSLRLSCVASGFTFRNYGMHWVRQAPGKGLDWVAIIGYDGSKEYNVDSVKGRFTISRDNSKNTLYLQMNSLGAEDTAIYYCARESPITGTTFDYWGQGTLVTVSS
VL: B2 VL with S9P, T25A, T30G, L46I, S54L
B4: H4H8060P (antibody, human IgG4, V domains shown)
VH: QVTLKESGPVLVKPTETLTLTCTVSGFSLSSARMGVSWIRQPPGKALEWLAHIFSTDEKSYSTSLKSRLSISKDTSLSQVVLIMTNMDPVDTATYYCARRTTMAPYYYYYGMDVWGHGTTVTVSS
VL: AIQMTQSPASLSASVGDRVTITCRASQGIRNDLGWYQQKPGKAPKLLISAASSLQSGVPSRFSGSGSGTDFTLTISSLQPEDFATYYCLQDYKYPWTFGQGTKVEIK
B5: H4H8066P (antibody, human IgG4, V domains shown)
VH: EVQLVESGGGLVQPGGSLRLSCEASGFTFSRYAMTWVRQAPGKGLEWVSGISGSGGSTFYVDSLQGRFTLSRDNSKHTLFLQMNSLRAEDTAIYYCAKENTYGHFDYWGQGTLVTVSS
VL: DIQLTQSPSFLSASVGDRVTITCWASQDISTYLAWYQQKPGKAPQVLIYAASSLQYGVPSRFSGSGSGTEFTLTITSLQPEDFATYYCQQLIGYPYIFGQGTKLEIK
B6: H4H8079P (antibody, human IgG4, V domains shown)
VH: EVQLVESGGGLVKPGGSLRLSCAASGFTFSNAWMSWVRQAPGKGLEWVGRIKSKTDGGTSEYAAPVKGRFTISRDDSKNTLFLQMNSLKSEDAAVYYCTTGRSWSDYFDFWGQGTLVTVSS
VL: not shown
B7: H4H8076P (antibody, human IgG4, V domains shown)
VH: QVQLQQSGPGLVKPSQTLSLTCAISGDSVSSNSVAWNWIRQSPSRGLEWLGRTYYRSNWYNTYAVSVKSRITIDPDTSKNQFSLQLNSVTPEDTALYYCARGHRYSGSYFDYWGQGTLVTVSS
VL: DIQMTQSPSSLSASVGDRVTITCRASQNINSYFNWYQQKPGKAPKLLIYAASSLQSGVPSRFSGGGSGTDFTLTISSLQPEDFATYYCQQTYTIPWTFGQGTKVEIK
B8: H4H8045P (antibody, human IgG4, V domains shown)
VH: EVQLVESGGALVQPGGSLRLSCAASGFTFSNYAMTWVRQAPGMGLEWVSGISSSGASTFYADSVKGRFTISRDNSKNTLYLQMNSLRAEDTAVYYCAKEDYWGWFDYWGQGTLVTVSS
VL: DIQLTQSPSFLSASVGDRVTITCWASQDVSSYLAWYQQEPGKAPKVLIYDASTLQSGVPSRFSGSGSGTEFTLTISSLQPEDFAPYYCQQLNSYPYTFGQGTKLEIK
B9: H4H8071P (antibody, human IgG4, V domains shown)
VH: EVQLVESGGGLVQPGGSLRLSCAASGFTFTTYFMSWVRQAPGKGLEWVSGISGSGTSTFYVDSMKGRFTISRDNSKNTLYLQMNSLRVEDTAVYFCAKENTYGHFDFWGQGTLVTVSS
VL: B8 VL with V29I, Y32H, E39K, F62I, P85A, N92D, S93G
B10: H4H8067P (antibody, human IgG4, V domains shown)
VH: QVQLVESGGGVVQPGRSLRLSCVASGFTFSNYGMHWVRQAPGKGLEWVALIWYDGSNKYFADSVKGRFTISRDNSKRMMFLEMNSLRAEDTAIYYCTRDRLFDFWGQGTLVTVSS
VL: AIQMTQSPSSLSASVGDRVSITCRASQDIRHDLGWFHQKPGKAPKLLIYAASTLQSGVPSRFGGSGSGTDFTLTITSLQPEDFGTYYCLQDYNYPATFGQGTRLEIK
B11: H4H8080P (antibody, human IgG4, V domains shown)
VH: EVQLVESGGGLVQSGGSLRLSCVASGFTFSTYAMTWVRQAPGRGLEWVSAISGSGASTYYADSLKGRFTVSRDNSKNTLYLQMNSLRAEDTAVYYCSKDHRNYDSDYDMDVWGQGTTVTVSS
VL: DIQMTQSPSSLSASVGDRVTITCRASQGIRNYLGWYQQKPGKAPKRLIYTASSLQSGVPSRFRGSGSGTEFTLTISSLQPEDFATYYCLQHNSYPYTFGQGTKLEIK
B12: H4H8062P (antibody, human IgG4, V domains shown)
VH: EVQLVESGGGLVQPGGSLRLSCSVSGFIFKNYAMRWVRQAPGKGLEWVSGISGSGGITYYADSVRGRVTISRDNSKNTLDLQMTNLRAEDTAVYYCAKAEYSSSGAYFDYWGQGTLVTVSS
VL: DIQMTQSPSSLSASVGDRVTITCRASQSIHNYLNWYLQRPGKAPKLLVYAASSLQSGVPSRFSGRGSGTDFTLTISSLQPEDFATYYCQQSYSAPYSFGQGTKLEIK
B13: H4H8046P (antibody, human IgG4, V domains shown)
VH: QVQLVQSRDEVKKPGASVKVSCKASGYTFTTYGISWVRQAPGQGLEWMGWINTYNGDTNYAQKVQDRVIMTTDTSTSTAYMELRSLRSDDTAVYFCAGARPLGGRRAFDIWGQGTMVTVSS
VL: DIQMTQSPSSLSASVGDRVTITCRASQGISHYLAWYQQKPGKVPKLLIYAASTLQSGVPSRFSGSGSGTDFTLTISSLQPEDVATYYCQKYNSVPWTFGQGTKVEIK

What follows are binders tested against human RET on cells (MCF7/SRE-Luc; HEK293/hGFRα3/hRET/SRE-Luc; HEK293/hGFRα1/hRET/SRE-Luc) (human), P07949 (assay: cell-based or functional assay).

293/hGFRα3/hRET SRE-luc % Blocking [%]	293/hGFRα3/hRET/SRE-Luc IC50 [nM]	MCF7/SRE-Luc % Activation [%]	MCF7/SRE-Luc Avg % Blocking [%]	MCF7/SRE-luc Avg. IC50 [nM]	Internalization (% H4H8087P), HEK293/hGFRa1/hRET/SRE-Luc cells, 37 C [%]	Binder
98	4	0	100	2.6		B1
		0	73	2		B2
		0	85	5.4	42	B3
		0	87	> 100		B4
93	1.5	0	60	0.39		B5
96	0.8	0	90	0.15	62.8	B6
		3	74	55.7		B7
96	0.42	0	69	0.14		B8
		0	84	0.45		B9
99	4.8	0	91	3.8	58.2	B10
57	341	0	41	> 100		B11
		0	100	5.2	44.9	B12
91	11.8	5	78	44		B13
